From patent US20170212131A1 (NEW YORK UNIVERSITY, published 2017)

How the values were obtained:
[1] = target: T1, Tau-phospho-serine 396/404 peptide; assay: SPR (Biacore 2000), antibody immobilized, peptide as analyte
T1 construct: Synthetic 30-residue peptide (Keck Foundation, Yale University) used for panning, ELISA and Biacore
Method: (§1) Briefly, scFv235/antibody (10 μg/ml) was diluted in 10 mM sodium acetate, pH 5.0, and was immobilized on a separate CMS sensor chip with an amine coupling kit (7 min contact time at 5 μl/min flow rate). Unreacted surface-bound material was blocked with ethanolamine. One channel of each sensor chip, prepared in the same way without scFv235 or antibody, was used to monitor the nonspecific binding of the peptide. All measurements were done with HBS-EP buffer (10 mM HEPES at pH 7.4, 150 mM NaCl, 3.4 mM EDTA and 0.005% surfactant P20) at flow rate of 5 μl/min at 25° C. After each measurement, the chip surface was regenerated with 10 μl of a buffer containing 500 mM NaCl and 0.1M glycine HCl, pH 8.0. […] Table 5 and Table 6 summarize the kinetics and specificity of binding of the 6B2G12 antibody and scFv235.

[2] = target: T1, Tau-phospho-serine 396/404 peptide; assay: as above; remark: listed apart in the source
Method: as §1

[3] = target: T1, Tau-phospho-serine 396/404 peptide; assay: SPR (Biacore 2000), scFv immobilized, peptide as analyte
Method: as §1

[4] = target: T1, Tau-phospho-serine 396/404 peptide; assay: ratio of SPR KD values
[5] = target: T1, Tau-phospho-serine 396/404 peptide; assay: SPR (Biacore 2000), scFv immobilized, peptide as analyte; remark: listed apart in the source
Method: as §1

[6] = target: T1, Tau-phospho-serine 396/404 peptide; assay: ratio of association/dissociation from SPR

| Binder | Kd [1] | Kd [2] | koff [2] | kon [2] | Kd [3] | selectivity for the phosphorylated peptide (SEQ ID NO:28) relative to the non-phosphorylated peptide (SEQ ID NO:27) [4] | Kd [5] | koff [5] | kon [5] | fold lower affinity than antibody 6B2G12 [6] |
| --- | --- | --- | --- | --- | --- | --- | --- | --- | --- | --- |
| antibody 6B2G12 (antibody, V domains shown, Monoclonal antibody from hybridoma clone 6B2G12, whole antibody (about 150 kDa); also called parent antibody; parental antibody) VH: EVQLQQSGPELVKPGASVKISCKTSEYTFTEYTKHWVKQSHGKSLEWIGSINPNNGDTYYNQKFTDKATLTVDKSSTTASMELRSLTFEDSAVYYCAMGDSAWFAYWGQGTLVTVS VL: not shown | 0.395 nM | 0.395 nM | 0.00146 s⁻¹ | 3.69e+06 M⁻¹ s⁻¹ | – | – | – | – | – | – |
| scFv235 (scFv, not shown: small tags and cut ends, Made in E. coli from the phage display library of hybridoma 6B2G12; also called the scFv; His-tagged scFv235) scFv: ELDVVMTQTPLTLSVTIGQPASISCKSSQSLLYSNGKTYLNWLLQRPGQSPKRLIYLVSKLDSGVPDRFTGSGSGTDFTLKISRVEAEDLGVYYCVQGTHSPLTFGAGTKLELKSSGGGGSGGGGGGSSRSSLEVQLQQSGPELVKPGASVKISCKTSEYTFTEYTKHWVKQSHGKSLEWIGSINPNNGDTYYNQKFTDKATLTVDKSSTTASMELRSLTFEDSAVYYCAMGDSAWFAYWGQGTLVTVSA | – | – | – | – | 1040 nM | 3900 fold | 994 nM | 0.0039 s⁻¹ | 3930 M⁻¹ s⁻¹ | ~2510 fold |
